From patent publication US20260184782A1 (TWIST BIOSCIENCE, published 2026)
Where a chain is given by its changes, count along the chain named. Values belong to the binder of their own block, whether it stands above or below them.

Biological target: T1, recombinant human TIGIT (human, UniProt Q495A1 22-141, limits assumed)
T1 construct: recombinant human TIGIT used in Carterra SPR; also called hTIGIT
T1 sequence (looked up): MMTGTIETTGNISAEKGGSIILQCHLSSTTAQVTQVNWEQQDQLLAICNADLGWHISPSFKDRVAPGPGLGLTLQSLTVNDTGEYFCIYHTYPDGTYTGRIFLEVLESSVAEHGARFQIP
Test: SPR Carterra, average
Protocol: Binding affinities of VHH-Fc proteins to recombinant human TIGIT were measured by SPR using a Carterra instrument (Table 10A). […] Average values reported from measurements from 1-2 samples.

Kd: 22.1 nM
koff: 0.00274 s⁻¹
kon: 124000 M⁻¹ s⁻¹
B1: TIGIT-SC2 (Fc fusion)
VHH: EVQLVESGGGLVQPGGSLRLSCAASGFTLSSNWMGWFRQAPGKEREMVAAIDWSGGSALYADSVKGRFTISADNSKNTAYLQMNSLKPEDTAVYYCAKDALSNSARFDHWGQGTLVTVSS
notes: VHH-Fc fusion in assay

Kd: 51 nM
koff: 0.00531 s⁻¹
kon: 105000 M⁻¹ s⁻¹
B2: TIGIT-SC124 (Fc fusion)
VHH: B1 VHH with F27S, T28I, L29F
notes: VHH-Fc fusion in assay

Kd: 61.3 nM
koff: 0.00807 s⁻¹
kon: 142000 M⁻¹ s⁻¹
B3: TIGIT-SC125 (Fc fusion)
VHH: B1 VHH with S31G
notes: VHH-Fc fusion in assay

Kd: 19.7 nM
koff: 0.00367 s⁻¹
kon: 196000 M⁻¹ s⁻¹
B4: TIGIT-SC119 (Fc fusion)
VHH: EVQLVESGGGLVQPGGSLRLSCAASGNTFSGGFMGWFRQAPGKEREWVASVLRGGYTWYADSVKGRFTISADNSKNTAYLQMNSLKPEDTAVYYCAKDGGWFDPWGQGTLVTVSS
notes: VHH-Fc fusion in assay

Kd: 24.3 nM
koff: 0.0015 s⁻¹
kon: 78400 M⁻¹ s⁻¹
B5: TIGIT-SC190 (Fc fusion)
VHH: EVQLVESGGGLVQPGGSLRLSCAASGFTFDRSWMGWFRQAPGKEREWVASVLRGGYTWYADSVKGRFTISADNSKNTAYLQMNSLKPEDTAVYYCVTDVGAPDYWGQGTLVTVSS
notes: VHH-Fc fusion in assay

Kd: 66.1 nM
koff: 0.00478 s⁻¹
kon: 67600 M⁻¹ s⁻¹
B6: TIGIT-SC120 (Fc fusion)
VHH: B4 VHH with N27F, G31P, G32S, F33W
notes: VHH-Fc fusion in assay

Kd: 47.9 nM
koff: 0.00149 s⁻¹
kon: 31200 M⁻¹ s⁻¹
B7: TIGIT-SC17 (Fc fusion)
VHH: B4 VHH with N27F, T28D, G31V, G32S, F33W, K97R, D98E, G100S, P104Y
notes: VHH-Fc fusion in assay

Kd: 23.7 nM
koff: 0.00507 s⁻¹
kon: 214000 M⁻¹ s⁻¹
B8: TIGIT-SC37 (Fc fusion)
VHH: B4 VHH with A96V, K97F, D98G, G100V, F102Q, P104V
notes: VHH-Fc fusion in assay

Kd: 62.5 nM
koff: 0.00484 s⁻¹
kon: 93300 M⁻¹ s⁻¹
B9: TIGIT-SC165 (Fc fusion)
VHH: B4 VHH with A96T, K97T, D98E, G100S, W101G, F102W, D103R, P104N
notes: VHH-Fc fusion in assay

Kd: 883 nM
koff: 0.00528 s⁻¹
kon: 8880 M⁻¹ s⁻¹
B10: TIGIT-SC189 (Fc fusion)
VHH: B5 VHH with F27N, D30S, R31G, S32G, W33F
notes: VHH-Fc fusion in assay

Kd: 21.7 nM
koff: 0.0101 s⁻¹
kon: 465000 M⁻¹ s⁻¹
B11: TIGIT-SC180 (Fc fusion)
VHH: EVQLVESGGGLVQPGGSLRLSCAASGFTLNDYAMGWFRQAPGKERELVAWIARYDGSTLYADSVKGRFTISADNSKNTAYLQMNSLKPEDTAVYYCASEVASGETDYWGQGTLVTVSS
notes: VHH-Fc fusion in assay

Kd: 20.4 nM
koff: 0.00254 s⁻¹
kon: 209000 M⁻¹ s⁻¹
B12: TIGIT-SC136 (Fc fusion)
VHH: EVQLVESGGGLVQPGGSLRLSCAASGFTLENNMMGWFRQAPGKEREFVAAISRSGTLKAYADSVKGRFTISADNSKNTAYLQMNSLKPEDTAVYYCARGGELTTFYFGYWGQGTLVTVSS
notes: VHH-Fc fusion in assay

Kd: 99.8 nM
koff: 0.0212 s⁻¹
kon: 212000 M⁻¹ s⁻¹
B13: TIGIT-SC150 (Fc fusion)
VHH: EVQLVESGGGLVQPGGSLRLSCAASGFTLENNMMGWFRQAPGKEREFVAAISRSGTLKAYADSVKGRFTISADNSKNTAYLQVNSLKPEDTAVYYCVRVRGYSGYDCDYWGQGTLVTVSS
notes: VHH-Fc fusion in assay

Kd: 22.5 nM
koff: 0.00219 s⁻¹
kon: 130000 M⁻¹ s⁻¹
B14: TIGIT-SC154 (Fc fusion)
VHH: EVQLVESGGGLVQPGGSLRLSCAASGFAFSSDWMGWFRQAPGKEREWVASVLRGGYTWYADSVKGRFTISADNSKNTAYLQMNSLKPEDTAVYYCAGDYRGFEMAFDPWGQGTLVTVSS
notes: VHH-Fc fusion in assay

Kd: 21.3 nM
koff: 0.00349 s⁻¹
kon: 164000 M⁻¹ s⁻¹
B15: TIGIT-SC167 (Fc fusion)
VHH: EVQLVESGGGLVQPGGSLRLSCAASGRTFSFMGWFRQAPGKEREWVASVLRGGYTWYADSVKGRFTISADNSKNTAYLQMNSLKPEDTAVYYCAREGSGYASDYWGQGTLVTVSS
notes: VHH-Fc fusion in assay

Kd: 80.3 nM
koff: 0.00621 s⁻¹
kon: 141000 M⁻¹ s⁻¹
B16: TIGIT-SC185 (Fc fusion)
VHH: EVQLVESGGGLVQPGGSLRLSCAASGRTFSFMGWFRQAPGKEREWVASVLRGGYTWYADSVKGRFTISADNSKNTAYLQMNSLKPEDTAVYYCTTDRGYNWNYDWGQGTLVTVSS
notes: VHH-Fc fusion in assay

Kd: 19.6 nM
koff: 0.00343 s⁻¹
kon: 207000 M⁻¹ s⁻¹
B17: TIGIT-SC64 (Fc fusion)
VHH: EVQLVESGGGLVQPGGSLRLSCAASGFAFSNFGMGWFRQAPGKERELVSAIGWSGASTYYADSVKGRFTISADNSKNTAYLQMNSLKPEDTAVYYCARRGRTIPFDYWGQGTLVTVSS
notes: VHH-Fc fusion in assay

Kd: 24 nM
koff: 0.0115 s⁻¹
kon: 383000 M⁻¹ s⁻¹
B18: TIGIT-SC147 (Fc fusion)
VHH: EVQLVESGGGLVQPGGSLRLSCAASGTITSAVFMGWFRQAPGKEREFVAAVIWRGGSLKSYADSVKGRFTISADNSKNTAYLQMNSLKPEDTAVYYCAKLAVAGNYYYYGMDVWGQGTLVTVSS
notes: VHH-Fc fusion in assay

Kd: 18.6 nM
koff: 0.013 s⁻¹
kon: 871000 M⁻¹ s⁻¹
B19: TIGIT-SC126 (Fc fusion)
VHH: EVQLVESGGGLVQPGGSLRLSCAASGSIFSGNVMGWFRQAPGKERELVAAISNSASSTVYADSVKGRFTISADNSKNTAYLQMNSLKPEDTAVYYCARDWNLFDYWGQGTLVTVSS
notes: VHH-Fc fusion in assay

Kd: 32.8 nM
koff: 0.0164 s⁻¹
kon: 501000 M⁻¹ s⁻¹
B20: TIGIT-SC127 (Fc fusion)
VHH: B19 VHH with V33A
notes: VHH-Fc fusion in assay

Kd: 26.9 nM
koff: 0.000801 s⁻¹
kon: 29800 M⁻¹ s⁻¹
B21: TIGIT-SC56 (Fc fusion)
VHH: EVQLVESGGGLVQPGGSLRLSCAASGNTFSGGFMGWFRQAPGKEREWVASVLRGGYTWYADSVKGRFTISADNSKNTAYLQMNSLKPEDTAVYYCAHSKGYNWFDPWGQGTLVTVSS
notes: VHH-Fc fusion in assay

Kd: 17.7 nM
koff: 0.00175 s⁻¹
kon: 101000 M⁻¹ s⁻¹
B22: TIGIT-SC52 (Fc fusion)
VHH: EVQLVESGGGLVQPGGSLRLSCAASGFLFDSYAMGWFRQAPGKEREFVAAISTGGGWRTYADSVKGRFTISADNSKNTAYLQMNSLKPEDTAVYYCAKRGNDNWYFDLWGQGTLVTVSS
notes: VHH-Fc fusion in assay

Kd: 28.3 nM
koff: 0.00179 s⁻¹
kon: 63200 M⁻¹ s⁻¹
B23: TIGIT-SC80 (Fc fusion)
VHH: EVQLVESGGGLVQPGGSLRLSCAASGNIPPINAMGWFRQAPGKEREFVAAINYSGGSTYYADSVKGRFTISADNSKNTAYLQMNSLKPEDTAVYYCARWHYDILTGYYWLDSWGQGTLVTVSS
notes: VHH-Fc fusion in assay

Kd: 56 nM
koff: 0.00445 s⁻¹
kon: 79500 M⁻¹ s⁻¹
B24: TIGIT-SC79 (Fc fusion)
VHH: B23 VHH with N27S, P29L, P30S, A33T, N52T, Y53S, S54A, S57T
notes: VHH-Fc fusion in assay

Kd: 18 nM
koff: 0.00402 s⁻¹
kon: 224000 M⁻¹ s⁻¹
B25: TIGIT-SC67 (Fc fusion)
VHH: EVQLVESGGGLVQPGGSLRLSCAASGFTFDRSWMGWFRQAPGKEREWVSTIYSNGTPAYADSVKGRFTISADNSKNTAYLQMNSLKPEDTAVYYCARRGLPSYSYGMDVWGQGTLVTVSS
notes: VHH-Fc fusion in assay

Kd: 21.8 nM
koff: 0.00276 s⁻¹
kon: 126000 M⁻¹ s⁻¹
B26: TIGIT-SC73 (Fc fusion)
VHH: EVQLVESGGGLVQPGGSLRLSCAASGSSFSLADYAMGWFRQAPGKEREFVAAISYNVGTTYYADSVKGRFTISADNSKNTAYLQMNSLKPEDTAVYYCARWSAKRHSDTMTYYMDVWGQGTLVTVSS
notes: VHH-Fc fusion in assay

Kd: 16.8 nM
koff: 0.00479 s⁻¹
kon: 285000 M⁻¹ s⁻¹
B27: TIGIT-SC151 (Fc fusion)
VHH: EVQLVESGGGLVQPGGSLRLSCAASGFPFSIYPMGWFRQAPGKEREFVAAISASGTLRAYADSVKGRFTISADNSKNTAYLQMNSLKPEDTAVYYCARSSSWVRIFDYWGQGTLVTVSS
notes: VHH-Fc fusion in assay

Kd: 17.7 nM
koff: 0.00118 s⁻¹
kon: 70300 M⁻¹ s⁻¹
B28: TIGIT-SC22 (Fc fusion)
VHH: EVQLVESGGGLVQPGGSLRLSCAASGFTLENNMMGWFRQAPGKEREMVAAISWSGGSALYADSVKGRFTISADNSKNTAYLQMNSLKPEDTAVYYCARGDGYSYGNFDYWGQGTLVTVSS
notes: VHH-Fc fusion in assay

Kd: 22.8 nM
koff: 0.0049 s⁻¹
kon: 221000 M⁻¹ s⁻¹
B29: TIGIT-SC12 (Fc fusion)
VHH: EVQLVESGGGLVQPGGSLRLSCAASGRTFSAYGMGWFRQAPGKEREFVAAITPSSRTTYYADSVKGRFTISADNSKNTAYLQMNSLKPEDTAVYYCAKDNWGEWLMPWWGQGTLVTVSS
notes: VHH-Fc fusion in assay

Kd: 16.6 nM
koff: 0.00243 s⁻¹
kon: 147000 M⁻¹ s⁻¹
B30: TIGIT-SC32 (Fc fusion)
VHH: EVQLVESGGGLVQPGGSLRLSCAASGFAFGDSWMGWFRQAPGKERELVAAIDWSGGSALYADSVKGRFTISADNSKNTALQMNSLKPEDTAVYYCAKVHSDFRAGWDVWGQGTLVTVSS
notes: VHH-Fc fusion in assay

Kd: 19.2 nM
koff: 0.0118 s⁻¹
kon: 631000 M⁻¹ s⁻¹
B31: TIGIT-SC41 (Fc fusion)
VHH: EVQLVESGGGLVQPGGSLRLSCAASGMTTIGPMGWFRQAPGKEREFVASIAWGDGNTYYADSVKGRFTISADNSKNTAYLQMNSLKPEDTAVYYCVRGGSRTLWGQGTLVTVSS
notes: VHH-Fc fusion in assay

Kd: 23.9 nM
koff: 0.00179 s⁻¹
kon: 75100 M⁻¹ s⁻¹
B32: TIGIT-SC28 (Fc fusion)
VHH: EVQLVESGGGLVQPGGSLRLSCAASGRTFSTDAMGWFRQAPGKEREFVATINWKDGFTYYADSVKGRFTISADNSKNTAYLQMNSLKPEDTAVYYCAGVGHDYGDYLFDYWGQGTLVTVSS
notes: VHH-Fc fusion in assay
